Results from US9127035B2, “Compounds for use in the treatment of bacterial infection” (THE ROYAL INSTITUTION FOR THE ADVANCEMENT OF …, priority 2011, dated 2015).

How the values were obtained:
Assay in all cases: PanK enzyme assay (Michaelis-Menten kinetics)
Format in all cases: biochemical, E. coli
Conditions in all cases: other: transformation by PanK, 25° C., Tris-HCl pH 7.6, triplicate
[1] = substrate: [H][C@]1(O[C@H]2[C@H](O)[C@@H](O)[C@H](N)C[C@@H]2N)O[C@H](CNC(=O)CCCSCCNC(=O)CCNC(=O)[C@H](O)C(C)(C)CO)[C@@H](O)[C@H](O)[C@H]1N
Method: (§1) PanK enzyme assay. The E. coli pantothenate kinase (PanK or coaA enzyme) was expressed and purified as previously described. Enzyme activity was measured as described in the literature [Strauss E, Begley T P J Biol Chem, 2002, 277:48205-48209]. This assay couples the production of ADP to the consumption of NADH through the activity of pyruvate kinase and lactic dehydrogenase. The decrease of NADH concentration was monitored at 340 nm. Reactions were performed at 25° C. in an Agilent 8453 UV-Vis spectrophotometer coupled to an Agilent 89090A Peltier temperature controller. Kinetic parameters were determined by fitting the rate data into the Michaelis-Menten equation using Prism 4.0 (GraphPad). Each reaction mixture (500 μL) contained ATP (1.5 mM), NADH (0.3 mM), phosphoenolpyruvate (0.5 mM), MgCl2 (10 mM), KCl (20 mM), pyruvate kinase (5 units), lactic dehydrogenase (5 units), and PanK (5 μg, 278 nM) in Tris-HCl buffer (50 mM, pH 7.6). The reaction was initiated by addition of the desired substrate (10-160 μM). All data points are from triplicate experiments.

[2] = substrate: [H][C@]1(O[C@H]2[C@H](O)[C@@H](O)[C@H](N)C[C@@H]2N)O[C@H](CNC(=O)CCSCCNC(=O)CCNC(=O)[C@H](O)C(C)(C)CO)[C@@H](O)[C@H](O)[C@H]1N
Method: as §1

[3] = substrate: CC(C)(CO)[C@@H](O)C(=O)NCCC(=O)NCCSCCCCCC(=O)NC[C@H]1O[C@H](O[C@H]2[C@H](O)[C@@H](O)[C@H](N)C[C@@H]2N)[C@H](N)[C@@H](O)[C@@H]1O
Method: as §1

[4] = substrate: [H][C@]1(O[C@H]2[C@H](O)[C@@H](O)[C@H](N)C[C@@H]2N)O[C@H](CNC(=O)CCCCSCCNC(=O)CCNC(=O)[C@H](O)C(C)(C)CO)[C@@H](O)[C@H](O)[C@H]1N
Method: as §1

B1: E. coli pantothenate kinase (PanK or coaA enzyme) (Escherichia coli K-12) (protein)
chain: MSIKEQTLMTPYLQFDRNQWAALRDSVPMTLSEDEIARLKGINEDLSLEEVAEIYLPLSRLLNFYISSNLRRQAVLEQFLGTNGQRIPYIISIAGSVAVGKSTTARVLQALLSRWPEHRRVELITTDGFLHPNQVLKERGLMKKKGFPESYDMHRLVKFVSDLKSGVPNVTAPVYSHLIYDVIPDGDKTVVQPDILILEGLNVLQSGMDYPHDPHHVFVSDFVDFSIYVDAPEDLLQTWYINRFLKFREGAFTDPDSYFHNYAKLTKEEAIKTAMTLWKEINWLNLKQNILPTRERASLILTKSANHAVEEVRLRK
notes: made in house
- Km [1]: 350 ± 80 µM
- kcat [1]: 0.5 ± 0.05 s⁻¹
- kcat/Km [1]: 1400 ± 400 M⁻¹ s⁻¹
- Km [2]: 480 ± 160 µM
- kcat [2]: 0.47 ± 0.05 s⁻¹
- kcat/Km [2]: 1000 ± 300 M⁻¹ s⁻¹
- Km [3]: 170 ± 50 µM
- Km [4]: 230 ± 69 µM
- kcat [4]: 0.52 ± 0.08 s⁻¹
- kcat/Km [4]: 2300 ± 800 M⁻¹ s⁻¹
